Where only a bound is given, the exact number is not on record here.

From patent US10618964B2, “Nanobody against IL-6R” (Ablynx N.V., dated 2020) come the findings set out here.

Experiment [1] has as its target T1, soluble IL-6R in cynomolgous plasma (cynomolgus monkey, UniProt A0A2K5WN54). Briefly: ELISA 2, periplasmic extract; competitor IL-6; cyno plasma.
The target of experiment [2] is T2, native soluble IL-6R in human plasma (human, UniProt P08887). The experiment in a line: ELISA 1, periplasmic extract; competitor IL-6; human plasma. For orientation: ELISA stands for enzyme-linked immunosorbent assay.
A further experiment addresses IL-6R on TF-1 cells (Homo sapiens (Human), UniProt P08887). The experiment in a line: cell-based or functional assay.
Experiment [3] has as its target T2, native soluble IL-6R in human plasma. Briefly: ELISA 3, periplasmic extract; competitor BN-12; human plasma.
Experiment [4] has as its target human IL-6R on CHO-K1 cells (clone HuIL6R 4D6) (human, UniProt P08887). The experiment in a line: FMAT competition; competitor Reference IgG-A647; CHO cells with human IL-6R. On the procedure:
Eleven inhibitory Nanobodies were tested in competition with labelled Reference IgG for binding to CHO cells expressing hIL-6R or cynoIL-6R.

Experiment [5] has as its target T2, native soluble IL-6R in human plasma. Briefly: plasma potency ELISA, purified Nanobody; competitor IL-6; human plasma. On the procedure:
(§1) In this ELISA, plasma was used as a source of native soluble IL-6R. By this assay, we aimed to confirm the alphascreen results and to get a view on the cross-reactivity of the clones towards cynomolgous IL-6R. Human plasma (ELISA 1 and ELISA 3) or cynomolgous plasma (ELISA 2) were pre-incubated with a dilution of the periplasmic extract of the clones together with human IL-6 (50 ng/mL). Subsequently, plasma soluble IL-6R was captured on a B-N12 coated plate and bound IL-6 was detected using anti-IL-6 antibody BAF206 and streptavidin-HRP (ELISA 1 and ELISA 2). The ELISA signal dropped when the Nanobody clone could compete with IL-6 for binding to soluble IL-6R. ELISA 3 was a parallel ELISA in which the detection antibody was replaced by anti-IL-6R antibody BAF227 to exclude false positive competitors, which actually compete with B-N12 (e.g. family 2). Depicted in Table C-5 is the ratio of the OD450 value of the test sample versus the blank OD450 (mock sample). Clones were ordered based on ELISA 1 data.
(§2) A potency ELISA was done with the purified Nanobodies as described in Example 9. Here, different dilutions of each purified Nanobody were incubated with human (ELISA1) and cynomolgous plasma (ELISA2). IC50 values are depicted in Table C-9.

The target in experiment [6] is T1, soluble IL-6R in cynomolgous plasma. Briefly: plasma potency ELISA, purified Nanobody; competitor IL-6; cyno plasma. On the procedure:
as §1, §2

Experiment [7] has as its target cyno IL-6R on CHO-K1 cells (clone CyIL6R 405) (cynomolgus monkey; human-rhesus). The experiment in a line: FMAT competition; competitor Reference IgG-A647; CHO cells with cyno IL-6R.
Experiment [8] concerns the target T3, native soluble IL-6R in human plasma (human), P08887.
T3 chain: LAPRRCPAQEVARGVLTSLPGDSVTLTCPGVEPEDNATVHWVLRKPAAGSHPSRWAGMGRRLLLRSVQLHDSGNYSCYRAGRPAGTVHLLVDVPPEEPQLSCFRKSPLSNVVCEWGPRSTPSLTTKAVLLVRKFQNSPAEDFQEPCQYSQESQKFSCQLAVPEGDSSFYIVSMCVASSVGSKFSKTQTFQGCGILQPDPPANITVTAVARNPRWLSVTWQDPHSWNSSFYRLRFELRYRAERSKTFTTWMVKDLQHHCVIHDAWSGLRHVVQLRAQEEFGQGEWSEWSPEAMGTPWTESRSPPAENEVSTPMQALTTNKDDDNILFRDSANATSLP
Briefly: ELISA 3, periplasmic extract; competitor BN-12; human plasma. The settings on record: remark: other sources report otherwise.

The target in experiment [9] is T3, native soluble IL-6R in human plasma …. Briefly: ELISA 1, periplasmic extract; competitor IL-6; human plasma. The settings on record: remark: other sources report otherwise.

B1: IL6RPMP100G11 (VHH)
VHH: EVQLVESGGGLVQAGGSLRLSCAASGRGFSPYTMGWFRQAPGKERVFVAGISWSTGIAHYTDSVKGRFTISRDNAKNTGSLQMNSLKPEDTAVYYCAVVQTTKGNYDYWGQGTQVTVSS
Turning to B1, the OD450 ratio sample/blank in experiment [1] worked out at 0.202; in experiment [2], 1.71; in experiment [3] it was 0.997. In the experiment with IL-6R on TF-1 cells, the “IC50, IL-6-dependent proliferation of TF-1 cells (3H-thymidine)” value (“IC50, IL-6-dependent proliferation” for short) worked out at 116 nM.

B2: Reference Fab (Fab, V domains shown)
VH: QVQLQESGPGLVRPSQTLSLTCTVSGYSITSDHAWSWVRQPPGRGLEWIGYISYSGITTYNPSLKSRVTMLRDTSKNQFSLRLSSVTAADTAVYYCARSLARTTAMDYWGQGSLVTVSS
VL: DIQMTQSPSSLSASVGDRVTITCRASQDISSYLNWYQQKPGKAPKLLIYYTSRLHSGVPSRFSGSGSGTDFTFTISSLQPEDIATYYCQQGNTLPYTFGQGTKVEIKR
With B2, the IC50 (in general, the midpoint of a concentration-inhibition curve) in experiment [4] is 3.4 nM. That is a single-digit nanomolar value.

B3: IL6RPMP108E1 (VHH)
VHH: EVQLVESGGGLVQAGGSLRLSCAASGFTFDDYDIGWFRQAPGKEREGVSGISSSDGNTYYADSVKGRFTISSDNAKNTVYLQMNSLKPEDTAVYYCAAEPPDSSWYLDGSPEFFKYWGQGTQVTVSS
For the molecule B3, the OD450 ratio sample/blank in experiment [1] was 0.359; in experiment [2], 0.0894; in experiment [3], 0.954. For the same molecule, the “IC50, IL-6-dependent proliferation” value in the experiment with IL-6R on TF-1 cells came to 0.149 nM. The figures for the IC50 in experiment [5] and in experiment [6] were 0.15 nM and 29.1 nM, respectively.

B4: IL6RPMP120G6 (VHH)
VHH: EVQLVESGGDLVQTGGSLRLSCAASGITVSDRAMGWYRQAPGKQREMVAGVSRGGMTSYADSVKGRLTISRDNAKNSVYLQMNSLNPEDTAVYYCSAYYRYGSSVPQYWGQGTQVTVSS
In the case of B4, the OD450 ratio sample/blank in [1] was 0.0289; in experiment [2] it was 0.236; in experiment [3] it was 0.993. In addition, the “IC50, IL-6-dependent proliferation” value with IL-6R on TF-1 cells turned out to be 10.2 nM. Further, the 50% inhibitory concentration (IC50) worked out at 1.12 nM in experiment [5] and 0.66 nM in [6].

B5: IL6RPMP104B8 (VHH)
VHH: EVQLVESGGGLVQAGGSLRLSCAASGFAFDDYAIGWFRQAPGKEREGVSSISSSNGNTYYADSVRGRFTISSDNAKNTVYLQMNSLKPEDTGVYYCAAIWGIFFNEKMPVGAYDYWGQGTQVTVSS
Take B5: the OD450 ratio sample/blank amounted to 0.735 in [1], 1.46 in experiment [2] and 1.05 in experiment [3]. In addition, the “IC50, IL-6-dependent proliferation” value with IL-6R on TF-1 cells came to 245 nM. Also, the 50% inhibitory concentration (IC50) in experiment [5] was 7.8 nM; in experiment [6] it was 252 nM.

B6: IL6RPMP120A5 (VHH)
VHH: EVQLVESGGGLVQAGGSLSLSCATSGRTISDDTMAWFRQAPGKEREFVAIITFNGARTHYSDSVRDRFTISRDNAKNTVYLQMNSLKSEDTAVYYCAASTKYYSSTYNYIHPAFYDIWGQGTQVTVSS
As for B6, the OD450 ratio sample/blank was 0.031 in experiment [1], 0.138 in experiment [2] and 0.988 in experiment [3]. Moreover, the “IC50, IL-6-dependent proliferation” value with IL-6R on TF-1 cells turned out to be 5.59 nM. The half-maximal inhibitory concentration (IC50) in experiment [5] worked out at 0.47 nM; in experiment [4], 63 nM; in [7], 27 nM; in [6] it was 0.55 nM.

B7: IL6RPMP103H9 (VHH)
VHH: EVQLVESGGGLVQPGGSLRLSCAASKSIFDINAMYWHRQAPGKQRESVASITSGGMRNYADSVKDRFTISKDNAKNTVYLQMNGLKPDDTAVYYCGLGRYEGGVWRDYWGQGTQVTVSS
Consider B7, for which the figures for the OD450 ratio sample/blank in experiment [1], in [2] and in experiment [3] were 0.263, 1.59 and 0.99, respectively. Further, in the experiment with IL-6R on TF-1 cells, the “IC50, IL-6-dependent proliferation” value is 1470 nM. Moreover, the results for the IC50 in [5], in experiment [4] and in experiment [6] were 37.9 nM, > 50 nM and 14.8 nM, respectively.

B8: IL6RPMP107A9 (VHH)
VHH: EVQLVESGGGLVQAGGSLRLSCAASGGIFSDMFMGWFRQAPGKSRESVARISPSGNTFYQDSVRGRFTISTDNAKNTVYLQMNNLKPEDTAVYYCAANVGVTGSYEYWGQGTQVTVSS
On to B8, for which the results for the OD450 ratio sample/blank in [1], in experiment [2] and in experiment [3] were 0.0867, 1.08 and 0.992, respectively. For the same molecule, in the experiment with IL-6R on TF-1 cells, the “IC50, IL-6-dependent proliferation” value stood at 349 nM. The figures for the IC50 in experiment [5] and in experiment [6] were 3.5 nM and 4.7 nM, respectively.

B9: IL6RPMP103F2 (VHH)
VHH: EVQLVESGGGLVQAGGSLRLSCVASGHTSDTYIMAWFRQAPGKEREFVASILWDGSITYYADSVKDRFTISRDISRKTLYLQMNSLRPEDTATYTCARGIYFSRRYVDPGIYGTWGQGTQVTVSS
Turning to B9, the OD450 ratio sample/blank was 1.09 in experiment [1], 0.993 in [8] and 1.95 in experiment [9].

B10: IL6RPMP108E9 (VHH)
VHH: EVQLVESGGGLVQAGGSLRLSCAFSRRSFGNFPMGWFRQRPGEEREYVAVISWNNNYIHYRDSVKGRFTASRDTSENRMYLQMNGLKPEDTAVYYCAARTKDNTLFTPAEEYDYWGQGTQVTVSS
On to B10, for which the OD450 ratio sample/blank in experiment [1] worked out at 0.961; in experiment [8], 0.989; in experiment [9], 0.731.

B11: IL6RPMP108C9 (VHH)
VHH: EVQLVESGGGLVQAGGSLRLSCAASGRTYAMAWFRQAPGKEREFVAAISIVTDYADSVKGRFNISRDNRENTVYLQMNSLKPEDTAVYYCAANTYYSGAYFPRGHEWYEYWGQGTQVTVSS
B11: the OD450 ratio sample/blank is 0.907 in experiment [1], 1.01 in [8] and 0.911 in experiment [9].

B12: IL6RPMP107A1 (VHH)
VHH: EVQLVESGGGLVQAGGSLNLSCNASGDIGSINAMGWYRQAPGQQREWVAVITDTDSTIYPDSVKGRFAISRDGAKNTVHLRMSSLKPEDTAVYYCNAYQAGWGDYWGQGTQVTVSS
Turning to B12, the OD450 ratio sample/blank was 0.292 in [1], 0.215 in experiment [2] and 0.967 in experiment [3]. Moreover, the “IC50, IL-6-dependent proliferation” value in the experiment with IL-6R on TF-1 cells was 4.05 nM. The values for the IC50 in experiment [5] and in experiment [6] were 0.38 nM and 47.8 nM, respectively.

B13: IL6RPMP105E1 (VHH)
VHH: EVQLVESGGGLVQAGGSLRLSCAASGSIFSIKAMGWYRQAPGKQRELVARITSGGSTYYADSVKGRFTISRDNAKNTVYLQMNSLKPEDTAVFYCNAIVTDSDYDLGNDYWGQGTQVTVSS
For the molecule B13, the OD450 ratio sample/blank in experiment [1] worked out at 0.0402; in experiment [2] it was 0.21; in experiment [3], 0.995. For the same molecule, the “IC50, IL-6-dependent proliferation” value with IL-6R on TF-1 cells came to 6.2 nM. Besides, the IC50 in experiment [5] is 0.58 nM; in experiment [4] it was > 100 nM; in experiment [7], 13 nM; in [6] it was 0.62 nM.

B14: IL6RPMP103C3 (VHH)
VHH: EVQLVESGGGLVQPGGSMRLSCAATGAIFSISTMGWYRQAPGAQREFVAGVGLDGTPNYADSVKGRFTISRDNTKNTVSLQMENLKPEDTGVYYCNIDEGMDYDGNFYDRWGQGTQVTVSS
B14: the OD450 ratio sample/blank in [1] stood at 1.1; in experiment [8] it was 1.01; in experiment [9] it was 2.02.
